In publication PMC3061058 (Nucleic Acids Research, 2010):
Where two headings read alike, the source gives them in different places.

T1: rgyr (reverse gyrase, full-length wild type) (Thermotoga maritima, UniProt O51934)
T1 sequence (O51934 1-1104): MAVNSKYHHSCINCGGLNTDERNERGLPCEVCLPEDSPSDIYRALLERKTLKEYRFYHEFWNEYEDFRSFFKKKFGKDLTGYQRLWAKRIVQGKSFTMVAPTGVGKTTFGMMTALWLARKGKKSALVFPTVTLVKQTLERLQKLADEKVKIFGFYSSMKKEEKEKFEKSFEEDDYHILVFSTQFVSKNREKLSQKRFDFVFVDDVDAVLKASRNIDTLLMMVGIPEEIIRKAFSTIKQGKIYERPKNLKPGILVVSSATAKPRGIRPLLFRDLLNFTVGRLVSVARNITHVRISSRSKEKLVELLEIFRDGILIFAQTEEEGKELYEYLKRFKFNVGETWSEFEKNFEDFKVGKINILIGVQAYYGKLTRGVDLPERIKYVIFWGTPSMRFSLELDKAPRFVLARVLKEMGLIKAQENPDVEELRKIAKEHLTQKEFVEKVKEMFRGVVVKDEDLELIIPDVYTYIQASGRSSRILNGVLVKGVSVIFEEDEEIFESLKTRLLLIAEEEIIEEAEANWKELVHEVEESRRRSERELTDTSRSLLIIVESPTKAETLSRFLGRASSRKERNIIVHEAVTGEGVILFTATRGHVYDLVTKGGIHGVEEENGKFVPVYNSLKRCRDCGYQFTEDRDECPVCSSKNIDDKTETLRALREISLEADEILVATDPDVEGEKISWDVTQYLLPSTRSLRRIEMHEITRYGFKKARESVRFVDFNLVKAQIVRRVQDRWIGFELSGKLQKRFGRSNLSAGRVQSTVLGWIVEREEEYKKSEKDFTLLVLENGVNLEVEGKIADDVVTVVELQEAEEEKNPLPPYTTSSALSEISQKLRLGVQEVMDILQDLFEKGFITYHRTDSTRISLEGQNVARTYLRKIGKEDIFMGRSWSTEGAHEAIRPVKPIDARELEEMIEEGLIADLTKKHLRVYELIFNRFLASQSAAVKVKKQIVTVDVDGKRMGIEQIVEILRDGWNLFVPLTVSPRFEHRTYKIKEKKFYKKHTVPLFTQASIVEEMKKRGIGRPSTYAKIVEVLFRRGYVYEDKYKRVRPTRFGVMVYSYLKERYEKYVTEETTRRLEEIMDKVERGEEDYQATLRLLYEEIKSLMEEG

T2: isolated latch (H3) (Thermotoga maritima, UniProt O51934 388-459)
T2 sequence: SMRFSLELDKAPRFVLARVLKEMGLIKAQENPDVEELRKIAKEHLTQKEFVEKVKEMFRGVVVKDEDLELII

T3: rgyr_hel_Δlatch (Thermotoga maritima, UniProt O51934 59-388+=G+460-541, internal_change)
T3 sequence: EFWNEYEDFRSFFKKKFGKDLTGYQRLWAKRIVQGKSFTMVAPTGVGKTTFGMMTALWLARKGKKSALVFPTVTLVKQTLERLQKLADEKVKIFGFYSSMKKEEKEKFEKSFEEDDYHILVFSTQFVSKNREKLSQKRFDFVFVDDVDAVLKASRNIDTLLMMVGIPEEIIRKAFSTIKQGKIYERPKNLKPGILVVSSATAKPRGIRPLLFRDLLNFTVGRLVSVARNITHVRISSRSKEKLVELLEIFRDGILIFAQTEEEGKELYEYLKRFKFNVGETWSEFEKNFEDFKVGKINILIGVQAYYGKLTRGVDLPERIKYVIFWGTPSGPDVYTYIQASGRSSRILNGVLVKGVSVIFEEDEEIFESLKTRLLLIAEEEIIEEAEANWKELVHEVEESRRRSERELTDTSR

T4: rgyr_Δlatch (Thermotoga maritima, UniProt O51934 1-1104, del389-459)
T4 sequence: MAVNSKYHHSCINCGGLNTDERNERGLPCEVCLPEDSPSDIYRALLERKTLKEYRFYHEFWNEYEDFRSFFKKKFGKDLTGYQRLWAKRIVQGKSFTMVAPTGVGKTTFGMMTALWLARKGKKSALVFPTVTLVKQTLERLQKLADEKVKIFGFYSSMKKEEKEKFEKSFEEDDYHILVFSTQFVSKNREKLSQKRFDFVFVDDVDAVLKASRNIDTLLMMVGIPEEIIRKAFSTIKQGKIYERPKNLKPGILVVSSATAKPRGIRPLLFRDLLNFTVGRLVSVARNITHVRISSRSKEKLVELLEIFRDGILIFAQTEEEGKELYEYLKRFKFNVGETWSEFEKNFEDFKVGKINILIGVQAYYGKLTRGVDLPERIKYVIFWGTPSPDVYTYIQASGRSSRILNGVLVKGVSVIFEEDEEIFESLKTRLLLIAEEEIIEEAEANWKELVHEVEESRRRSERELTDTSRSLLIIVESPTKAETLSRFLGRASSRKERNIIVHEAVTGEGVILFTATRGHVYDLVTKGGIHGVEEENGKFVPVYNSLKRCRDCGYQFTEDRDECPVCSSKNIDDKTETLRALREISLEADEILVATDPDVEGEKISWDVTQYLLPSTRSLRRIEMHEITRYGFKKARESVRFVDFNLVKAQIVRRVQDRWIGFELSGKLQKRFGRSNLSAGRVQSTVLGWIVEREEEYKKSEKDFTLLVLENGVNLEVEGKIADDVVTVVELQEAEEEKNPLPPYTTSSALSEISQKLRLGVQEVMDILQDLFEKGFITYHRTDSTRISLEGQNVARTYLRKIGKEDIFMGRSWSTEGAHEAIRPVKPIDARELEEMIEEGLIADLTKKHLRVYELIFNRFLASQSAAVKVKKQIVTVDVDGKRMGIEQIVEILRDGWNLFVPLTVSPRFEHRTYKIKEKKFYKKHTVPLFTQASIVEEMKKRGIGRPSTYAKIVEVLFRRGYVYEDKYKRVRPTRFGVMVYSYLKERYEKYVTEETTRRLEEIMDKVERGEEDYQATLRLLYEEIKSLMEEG


Key:
[1] = target: T1, rgyr (reverse gyrase, full-length wild type); assay: fluorescence equilibrium titration; format: binding
[2] = target: rgyr_Δlatch (reverse gyrase lacking the latch region) (Thermotoga maritima, UniProt O51934, DEL389-459/INS388G); assay: biochemical
purified protein = substrate: Nc1ncnc2c1ncn2[C@@H]1O[C@H](COP(=O)(O)OP(=O)(O)OP(=O)(O)O)[C@@H](O)[C@H]1O; assay: purified protein; settings: no DNA, pH 7.5, 10 mM MgCl2, 0.15 M NaCl
isolated latch (H3) = target: T2, isolated latch (H3); assay: fluorescence anisotropy
rgyr_hel_Δlatch = target: T3, rgyr_hel_Δlatch; assay: fluorescence anisotropy
rgyr_Δlatch [3] = target: T4, rgyr_Δlatch; assay: fluorescence anisotropy
rgyr_Δlatch [4] = target: T4, rgyr_Δlatch; assay: fluorescence anisotropy; remark: listed apart in the source

Molecule	Km (purified protein)	kcat (purified protein)	Kd (isolated latch (H3))	Kd (rgyr_hel_Δlatch)	further results
Nc1ncnc2c1ncn2[C@@H]1O[C@H](COP(=O)(O)OP(=O)(O)NP(=O)(O)O)[C@@H](O)[C@H]1O [ADPNP]	–	–	–	–	Kd [1]: 10 ± 0.8 µM; Kd [2]: 4.7 ± 0.8 µM
rgyr_Δlatch (reverse gyrase lacking the latch region) (Thermotoga maritima MSB8; DEL389-459/INS388G) (protein) MAVNSKYHHSCINCGGLNTDERNERGLPCEVCLPEDSPSDIYRALLERKTLKEYRFYHEFWNEYEDFRSFFKKKFGKDLTGYQRLWAKRIVQGKSFTMVAPTGVGKTTFGMMTALWLARKGKKSALVFPTVTLVKQTLERLQKLADEKVKIFGFYSSMKKEEKEKFEKSFEEDDYHILVFSTQFVSKNREKLSQKRFDFVFVDDVDAVLKASRNIDTLLMMVGIPEEIIRKAFSTIKQGKIYERPKNLKPGILVVSSATAKPRGIRPLLFRDLLNFTVGRLVSVARNITHVRISSRSKEKLVELLEIFRDGILIFAQTEEEGKELYEYLKRFKFNVGETWSEFEKNFEDFKVGKINILIGVQAYYGKLTRGVDLPERIKYVIFWGTPSGPDVYTYIQASGRSSRILNGVLVKGVSVIFEEDEEIFESLKTRLLLIAEEEIIEEAEANWKELVHEVEESRRRSERELTDTSRSLLIIVESPTKAETLSRFLGRASSRKERNIIVHEAVTGEGVILFTATRGHVYDLVTKGGIHGVEEENGKFVPVYNSLKRCRDCGYQFTEDRDECPVCSSKNIDDKTETLRALREISLEADEILVATDPDVEGEKISWDVTQYLLPSTRSLRRIEMHEITRYGFKKARESVRFVDFNLVKAQIVRRVQDRWIGFELSGKLQKRFGRSNLSAGRVQSTVLGWIVEREEEYKKSEKDFTLLVLENGVNLEVEGKIADDVVTVVELQEAEEEKNPLPPYTTSSALSEISQKLRLGVQEVMDILQDLFEKGFITYHRTDSTRISLEGQNVARTYLRKIGKEDIFMGRSWSTEGAHEAIRPVKPIDARELEEMIEEGLIADLTKKHLRVYELIFNRFLASQSAAVKVKKQIVTVDVDGKRMGIEQIVEILRDGWNLFVPLTVSPRFEHRTYKIKEKKFYKKHTVPLFTQASIVEEMKKRGIGRPSTYAKIVEVLFRRGYVYEDKYKRVRPTRFGVMVYSYLKERYEKYVTEETTRRLEEIMDKVERGEEDYQATLRLLYEEIKSLMEEG	26.5 ± 3.5 µM	0.018 s⁻¹	–	–	–
60 b ssDNA (ssDNA) DNA: AAGCCAAGCTTCTAGAGTCAGCCCGTGATATTCATTACTTCTTATCCTAGGATCCCCGTT	–	–	64 ± 29 µM	0.42 ± 0.07 µM	Kd (rgyr_Δlatch [3]): 0.033 ± 0.077 µM
60 bp dsDNA (dsDNA) DNA 1: AAGCCAAGCTTCTAGAGTCAGCCCGTGATATTCATTACTTCTTATCCTAGGATCCCCGTT DNA 2: AACGGGGATCCTAGGATAAGAAGTAATGAATATCACGGGCTGACTCTAGAAGCTTGGCTT	–	–	78 ± 39 µM	21 ± 5 µM	Kd (rgyr_Δlatch [4]): 0.096 ± 0.019 µM
rgyr_hel_Δlatch (helicase-like domain lacking the latch) (Thermotoga maritima MSB8; DEL389-459/INS388G) (protein) EFWNEYEDFRSFFKKKFGKDLTGYQRLWAKRIVQGKSFTMVAPTGVGKTTFGMMTALWLARKGKKSALVFPTVTLVKQTLERLQKLADEKVKIFGFYSSMKKEEKEKFEKSFEEDDYHILVFSTQFVSKNREKLSQKRFDFVFVDDVDAVLKASRNIDTLLMMVGIPEEIIRKAFSTIKQGKIYERPKNLKPGILVVSSATAKPRGIRPLLFRDLLNFTVGRLVSVARNITHVRISSRSKEKLVELLEIFRDGILIFAQTEEEGKELYEYLKRFKFNVGETWSEFEKNFEDFKVGKINILIGVQAYYGKLTRGVDLPERIKYVIFWGTPSGPDVYTYIQASGRSSRILNGVLVKGVSVIFEEDEEIFESLKTRLLLIAEEEIIEEAEANWKELVHEVEESRRRSERELTDTSR	67 ± 18 µM	0.02 s⁻¹	–	–	–
